From article PMC10641686, “Fcγ receptor binding is required for maximal immunostimulation by CD70-Fc” (Frontiers in Immunology, 2023)
Where two headings read alike, the source gives them in different places.

Key:
[1] = target: FcγRs (mouse (endogenous in C57BL/6 mice))
[2] = target: dimer of trimer CD70-Fc fusion protein (dtCD70-Fc) (mouse) (UniProt O55237); assay: SDS-PAGE under non-reducing and reducing conditions; 5 ug purified protein on a 10% SDS-polyacrylamide gel, Coomassie blue; disulfide-linked dimer of the Fc fusion chain
[3] = target: T1, Recombinant mouse CD27-human Fc (mouse, UniProt P41272 24-182); assay: SPR; apparent; Biacore T200, HBS-EP+; mouse CD27-human Fc captured on anti-human IgG coupled to a CM5 chip; CD70 fusion proteins (1.56, 6.25, 25 and 100 nM) injected at 30 ul/min; KD from ka and kd
T1 construct: CD27, mouse; Captured by anti-human IgG on the chip; no catalogue number is printed; also called CD27-Fc; mouse CD27 protein; source: bought: R&D systems
T1 sequence (looked up): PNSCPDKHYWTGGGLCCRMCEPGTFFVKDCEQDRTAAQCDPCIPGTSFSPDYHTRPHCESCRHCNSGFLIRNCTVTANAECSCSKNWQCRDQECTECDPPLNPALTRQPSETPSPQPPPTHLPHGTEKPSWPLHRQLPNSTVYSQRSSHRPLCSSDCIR

[4] = target: anti-CD27 mouse IgG1 (recombinant, from hybridoma AT124-1) (mouse); assay: SPR; about 2000 RU of dtCD70-Fc or anti-CD27 immobilised on a CM5 chip by amine coupling; mouse FcRn (0, 0.8, 4, 20, 100, 500 nM) injected 3 min at 30 ul/min in HBS-EP+ pH 6; KD from steady-state binding levels
[5] = target: dimer of trimer CD70-Fc fusion protein (dtCD70-Fc) (mouse) (UniProt O55237); assay: as above

“Endo H treated dtCD70-Fc (from UniProt O55237 41-195; O55237 41-195; O55237 41-195) (Fc fusion)” gave an OT-I T cell expansion in vivo during the primary response, Endo H treated dtCD70-Fc (wild-type Fc) against Endo H treated dtCD70-Fc(D265A) [1] of 3 fold.

Work on “dimer of trimer CD70-Fc fusion protein (dtCD70-Fc) (from UniProt O55237 41-195; O55237 41-195; O55237 41-195)” yielded a stoichiometry N [2] of 2 and a Kd [3] of 0.6 nM.

B1: recombinant mouse FcRn (receptor)
chain: SETRPPLMYHLTAVSNPSTGLPSFWATGWLGPQQYLTYNSLRQEADPCGAWMWENQVSWYWEKETTDLKSKEQLFLEALKTLEKILNGTYTLQGLLGCELASDNSSVPTAVFALNGEEFMKFNPRIGNWTGEWPETEIVANLWMKQPDAARKESEFLLNSCPERLLGHLERGRRNLEWKEPPSMRLKARPGNSGSSVLTCAAFSFYPPELKFRFLRNGLASGSGNCSTGPNGDGSFHAWSLLEVKRGDEHHYQCQVEHEGLAQPLTVDLDSSARSS
B1 showed a Kd [4] of 49 nM and a Kd [5] of 46 nM.

B2: Soluble trimeric CD70 (tCD70) (ligand, mouse, UniProt O55237 41-195, looked up)
chain: SGLLSKQQQRLLEHPEPHTAELQLNLTVPRKDPTLRWGAGPALGRSFTHGPELEEGHLRIHQDGLYRLHIQVTLANCSSPGSTLQHRATLAVGICSPAAHGISLLRGRFGQDCTVALQRLTYLVHGDVLCTNLTLPLLPSRNADETFFGVQWICP
notes: CD70, mouse, extracellular domain S41-P195; Predicted chain MW 51.5 kDa; also called CD4 fusion protein; not shown: CD4 domains 3 and 4 (mouse), N-terminal, kept
In the case of B2, the Kd ([3]; both partners purified) is reported as 1.2 nM.
